Experimental findings from patent US20210070881A1 (DENALI THERAPEUTICS, published 2021) are described below.

For test [1], the target named is cellular BACE1 in CHOK1-huAPP cells. The experiment in a line: cell-based or functional assay.
The target of test [2] is T1, recombinant BACE1 (BACE1 extracellular domain, R&D Systems Cat#931-AS) (UniProt P56817 22-457).
T1 construct: extracellular domain; also called BACE1 extracellular domain protein
In words: SPR Biacore. Background: SPR reads the build-up and loss of mass on a sensor chip optically.

Test [3] deals with T1, recombinant BACE1 (BACE1 extracellular …). In words: SPR Biacore 8K, antibody captured, BACE1 analyte. As for the experimental part:
(§1) The binding affinities of the affinity matured humanized 2H8 variants for BACE1 were determined by surface plasmon resonance using a Biacore™ 8K instrument. […] The binding was monitored for 300 seconds and then dissociation was monitored for 600+ seconds in HBS-EP+ running buffer (GE Healthcare Life Sciences, BR100669). Binding response was corrected by subtracting the RU from a blank flow cell. A 1:1 Langmuir model of simultaneous fitting of kₒₙ and koff was used for kinetics analysis.

The target is the same in test [4]. In words: SPR Biacore 8K, antibody captured, BACE1 analyte. As for the experimental part: as §1
The source holds these as a separate data set.

The target of test [5] is cellular BACE1 in CHOK1-huAPP cells. In words: cell-based or functional assay. The source holds these as a separate data set.
In test [6] the target is T2, human TfR (human, UniProt P02786 89-760, limits assumed).
T2 construct: Protein coated on ELISA plates; also called human transferrin receptor protein 1
In words: soft-randomization libraries selected on TfR.

The target in test [7] is T2, human TfR. In words: ELISA, TfR coated, Fab-Fc fusion. As for the experimental part: Binding ELISAs were conducted with purified Fab-Fc fusion variants with human or cyno TfR coated on the plate, as described above. The variants from the clone CH3C.18 maturation library, clone CH3C.3.2-1, clone CH3C.3.2-5, and clone CH3C.3.2-19, bound human and cyno TfR with approximately equivalent EC₅₀ values, whereas the parent clones CH3C.18 and CH3C.35 had greater than 10-fold better binding to human versus cyno TfR.
A general note: In an ELISA, binding on a coated surface is turned into a signal by an enzyme label.

The target in test [8] is T1, recombinant BACE1 (BACE1 extracellular …). The experiment in a line: SPR Biacore T200, IgG captured, BACE1 analyte. As for the experimental part:
The affinity of chimeric IgG antibodies for recombinant BACE1 was determined by surface plasmon resonance using a Biacore™ T200 instrument. Biacore™ Series S CMS sensor chips were immobilized with monoclonal mouse anti-human IgG (Fc) antibody (e.g., using a human antibody capture kit from GE Healthcare). 1 μg/mL of antibody was captured for 1 minute on each flow cell and serial 3-fold dilutions of recombinant BACE1 were injected at a flow rate of 30 μL/min. Each sample was analyzed with a 3-minute association and a 10-minute dissociation. After each injection, the chip was regenerated using 3M MgCl₂. Binding response was corrected by subtracting the RU from a flow cell capturing an irrelevant IgG at similar density. A 1:1 Langmuir model of simultaneous fitting of kₒₙ and koff was used for analysis of kinetics.

The target of test [9] is cellular BACE1 in CHOK1-huAPP cells. In words: cell-based or functional assay. This is another data set of the same source.
Test [10] has as its target BACE1 in primary human neurons (human, UniProt P56817 46-501). The experiment in a line: cell-based or functional assay.
In test [11] the target is cellular BACE1 in CHOK1-huAPP cells. The experiment in a line: cell-based or functional assay. The source holds these as a separate data set.
The target in test [12] is T1, recombinant BACE1 (BACE1 extracellular …). In words: SPR Biacore. This is another data set of the same source.

Numbering of substitutions follows the chain as printed. Read-outs that look alike come from different tables or passages of the source.

T1 sequence (P56817 22-457): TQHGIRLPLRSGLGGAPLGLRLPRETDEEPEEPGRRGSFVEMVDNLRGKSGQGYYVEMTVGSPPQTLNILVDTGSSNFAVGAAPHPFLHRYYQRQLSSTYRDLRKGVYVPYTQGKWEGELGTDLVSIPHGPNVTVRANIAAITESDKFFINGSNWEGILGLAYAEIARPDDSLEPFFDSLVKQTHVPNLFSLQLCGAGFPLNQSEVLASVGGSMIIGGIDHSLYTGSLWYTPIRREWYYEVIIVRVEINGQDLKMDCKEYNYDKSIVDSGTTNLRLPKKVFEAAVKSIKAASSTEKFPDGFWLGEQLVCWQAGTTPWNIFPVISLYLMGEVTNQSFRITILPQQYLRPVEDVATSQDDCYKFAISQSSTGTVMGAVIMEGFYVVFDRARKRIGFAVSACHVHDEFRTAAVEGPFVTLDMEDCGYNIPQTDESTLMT
T2 sequence (P02786 89-760 limits assumed): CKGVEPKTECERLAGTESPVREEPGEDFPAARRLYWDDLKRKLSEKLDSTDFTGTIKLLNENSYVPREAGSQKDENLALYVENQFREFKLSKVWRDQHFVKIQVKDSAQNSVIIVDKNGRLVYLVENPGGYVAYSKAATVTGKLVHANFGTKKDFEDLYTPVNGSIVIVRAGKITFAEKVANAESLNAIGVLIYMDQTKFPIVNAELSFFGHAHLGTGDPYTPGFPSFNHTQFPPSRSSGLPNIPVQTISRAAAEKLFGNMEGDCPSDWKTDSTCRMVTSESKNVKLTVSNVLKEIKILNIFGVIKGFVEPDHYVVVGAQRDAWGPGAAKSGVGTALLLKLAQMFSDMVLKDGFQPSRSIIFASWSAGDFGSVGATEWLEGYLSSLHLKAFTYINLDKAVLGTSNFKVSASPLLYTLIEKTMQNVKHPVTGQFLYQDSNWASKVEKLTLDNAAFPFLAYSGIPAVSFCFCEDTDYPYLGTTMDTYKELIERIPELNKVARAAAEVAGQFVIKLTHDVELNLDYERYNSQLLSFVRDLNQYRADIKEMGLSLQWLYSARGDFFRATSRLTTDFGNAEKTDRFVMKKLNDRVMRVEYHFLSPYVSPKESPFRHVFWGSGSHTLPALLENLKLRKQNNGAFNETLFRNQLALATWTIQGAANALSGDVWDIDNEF
Sequence of BACE1 in primary human neurons (P56817 46-501): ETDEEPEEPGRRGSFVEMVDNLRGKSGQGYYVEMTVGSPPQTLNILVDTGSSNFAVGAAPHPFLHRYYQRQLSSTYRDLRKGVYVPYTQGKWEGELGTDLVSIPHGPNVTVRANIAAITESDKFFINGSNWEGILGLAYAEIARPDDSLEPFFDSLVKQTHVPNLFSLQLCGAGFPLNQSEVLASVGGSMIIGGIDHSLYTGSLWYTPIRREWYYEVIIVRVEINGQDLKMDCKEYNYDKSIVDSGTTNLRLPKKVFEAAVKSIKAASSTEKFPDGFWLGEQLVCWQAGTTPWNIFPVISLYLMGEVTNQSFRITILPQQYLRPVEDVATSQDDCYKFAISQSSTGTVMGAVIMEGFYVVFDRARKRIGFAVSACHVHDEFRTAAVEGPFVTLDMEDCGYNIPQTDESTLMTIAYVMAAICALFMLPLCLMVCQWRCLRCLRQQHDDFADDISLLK

B1: hu2H8v29 (antibody, V domains shown)
VH: QVQLVQSGAEVKKPGASVKVSCKASGYTFTNFWIHWVRQAPGQGLEWMGMIDPSDSYTKYNQKFKARATLTVDTSTSTVYMELSSLRSEDTAVYYCARSGVAFPYWGQGTLVTVSS
VL: DIQMTQSPSSLSASVGDRVTITCKASQDVGRNVAWYQQKPGKSPKSLIYSASHRYSGVPSRFSGSGSGTDFTLTISSLQPEDFATYFCQQYNSYPYTFGQGTKVEIK
notes: humanized; also called hu2H8_HC6 + hu2H8_LC5
Usually IC50 stands for the point on the concentration scale where inhibition reaches its midpoint. A low value points to higher potency. One may read the Kd as the concentration at which binding is half-saturated. For B1, inhibition in test [1] was half-maximal at 14.8 nM (IC50). The same molecule yielded a Max. % inhibition in [1] of 86%. Also, the Kd in [2] was 12 nM; in [3], 9.21 nM; in test [4], 9.21 nM.

B2: Clone35.23.4:2H8/2H8 (antibody, V domains shown)
VH: B1 VH with D55S, V101A, A102S, F103L
VL: B1 VL with R54Y, N92Y
For B2, in [5], the “cellular IC50 (human Aβ40, CHO-huAPP cells)” value was found to be 10 nM.

B3: hu2H8v29.11 (antibody, V domains shown)
VH: B1 VH
VL: B1 VL with N92Y, P95A
notes: captured via human Fc; also called hu2H8_HC6 + hu2H8_LC5.11
With B3, the Kd in test [3] was 4.83 nM.

B4: hu2H8v27 (antibody, V domains shown)
VH: B1 VH with V37L, A68V, L70M, V79T
VL: B1 VL
notes: humanized; also called hu2H8_HC3 + hu2H8_LC5
Consider B4, for which, in test [1], the “IC50” value turned out to be 16.5 nM and the Max. % inhibition worked out at 85%. Moreover, the dissociation constant Kd in test [2] was 12.8 nM.

B5: hu2H8v17 (antibody, V domains shown)
VH: B1 VH
VL: B1 VL with S43A, F87Y
notes: humanized; also called hu2H8_HC6 + hu2H8_LC3
For the molecule B5, in test [1], the “IC50” value is 22.1 nM and the Max. % inhibition was found to be 91%. In addition, the Kd in [2] amounted to 12.1 nM.

B6: Clone CH3C.21 (designed binder)
chain: APELLGGPSVFLFPPKPKDTLMISRTPEVTCVVVDVSHEDPEVKFNWYVDGVEVHNAKTKPREEQYNSTYRVVSVLTVLHQDWLNGKEYKCKVSNKALPAPIEKTISKAKGQPREPQVYTLPPSRDELTKNQVSLTCLVKGFYPSDIAVEWESLGLVWVGYKTTPPVLDSDGSFFLYSKLTVPKSTWQQGWVFSCSVMHEALHNHYTQKSLSLSPGK
notes: modified Fc polypeptide
For B6, the binding result in test [6] is reported as “binds”.

B7: Clone CH3C.44 (designed binder)
chain: B6 chain with L154Y, L156T, V157E, V159S, G160N, P183S, T186E, W191F
notes: modified Fc polypeptide
For the molecule B7, the binding result in test [6] is “binds”.

B8: Clone CH3C.25 (designed binder)
chain: B6 chain with L154M, L156H, P183D
notes: modified Fc polypeptide
B8: the binding result in [6] is on record as “binds”.

B9: Clone CH3C.51 (designed binder)
chain: B6 chain with L156H, P183S, T186E
notes: modified Fc polypeptide
In the case of B9, the binding result in test [6] is “binds”.

B10: Clone CH3C.34 (designed binder)
chain: B6 chain with G160F, Y161S
notes: modified Fc polypeptide
As for B10, the binding result in test [6] is “binds”.

B11: Clone CH3C.3.2-1 (designed binder)
chain: B6 chain with L156H, G160N, Y161F
notes: modified Fc polypeptide; tested as purified Fab-Fc fusion, Fab not identified
As for B11, the binding result in [7] is “binds”.

B12: Clone CH3C.17 (designed binder)
chain: B6 chain with L154Y, L156T, V159S, G160K, P183S, T186E, W191F
notes: modified Fc polypeptide
As to B12, the binding result in [6] is “binds”.

B13: 2H8 (antibody, human IgG1, V domains shown)
VH: EVQLQQSGPELVKPGASVKLSCKASGYTFTNFWIHWLKQRPGQGLEWIGMIDPSDSYTKYNQKFKAKATLTVDTSSSTTYMHLSSLTSEDSAVYYCARSGVAFPYWGQRTLVTVSA
VL: DIVMTQSQKFMSKSVGDTVSVTCKASQDVGRNVAWYQQKSGQSPKSLIYSASHRYSGVPDRFTGSGSGTDFTLTISNVQSEDLADYFCQQYNSYPYTFGGGTRLEIK
notes: chimeric, human IgG1/kappa; also called Clone 2H8; 2H8.01
As usually defined, the koff is a measure of how fast the partners let go of each other. The kon is a measure of how fast the partners come together. With B13, in test [8], the Kd stood at 6.3 nM, the koff stood at 0.00019 s⁻¹ and the kon was 30000 M⁻¹ s⁻¹. In [9], the “% Max Inhibition” value turned out to be 71% and the “Cellular IC50” value came out at 16 nM. Moreover, the “IC50 of Aβ40 formation, primary human neurons” value in test [10] amounted to 15 nM. In test [1], the “IC50” value was 24.8 nM and the Max. % inhibition came out at 82%. Further, in [2], the Kd was 14.8 nM. Further, in [11], 25 nM corresponded to half-maximal inhibition (IC50) and the Max. % inhibition was 82%. In test [12], the Kd amounted to 14.8 nM, the koff was determined as 0.000316 s⁻¹ and the kon came to 21400 M⁻¹ s⁻¹.
